Measurements from paper PMC3272265.

What was measured:
[1] = mating with proven fertile normal males; conditions: glycan lost; control: co-caged transgenic control females
[2] = two-cell embryos after overnight incubation; conditions: glycan lost; control: normal eggs
[3] = EGFP acrosome status and Alexa 568-SBTI staining; conditions: glycan lost; control: normal eggs
[4] = displacement of Hoechst-labelled sperm by Acr3-EGFP sperm; conditions: glycan lost; control: normal eggs

B1: ZP3: Zp3Mut (protein)
parent chain: MASSYFLFLCLLLCGGPELCNSQTLWLLPGGTPTPVGSSSPVKVECLEAELVVTVSRDLFGTGKLVQPGDLTLGSEGCQPRVSVDTDVVRFNAQLHECSSRVQMTKDALVYSTFLLHDPRPVSGLSILRTNRVEVPIECRYPRQGNVSSHPIQPTWVPFRATVSSEEKLAFSLRLMEENWNTEKSAPTFHLGEVAHLQAEVQTGSHLPLQLFVDHCVATPSPLPDPNSSPYHFIVDFHGCLVDGLSESFSAFQVPRPRPETLQFTVDVFHFANSSRNTLYITCHLKVAPANQIPDKLNKACSFNKTSQSWLPVEGDADICDCCSHGNCSNSSSSQFQIHGPRQWSKLVSRNRRHVTDEADVTVGPLIFLGKANDQTVEGWTASAQTSVALGLGLATVAFLTLAAIVLAVTRKCHSSSYLVSLPQ
no change: other: in vivo fertility (litter size) [1] | other: in vitro fertilisation rate [2] | other: induction of sperm acrosome exocytosis [3] | other: reversibility of sperm binding [4]
